The target of series [1] is T1, phytase from Aspergillus niger 11T53A9 (Aspergillus niger, UniProt P34752).
T1 sequence (P34752 24-467): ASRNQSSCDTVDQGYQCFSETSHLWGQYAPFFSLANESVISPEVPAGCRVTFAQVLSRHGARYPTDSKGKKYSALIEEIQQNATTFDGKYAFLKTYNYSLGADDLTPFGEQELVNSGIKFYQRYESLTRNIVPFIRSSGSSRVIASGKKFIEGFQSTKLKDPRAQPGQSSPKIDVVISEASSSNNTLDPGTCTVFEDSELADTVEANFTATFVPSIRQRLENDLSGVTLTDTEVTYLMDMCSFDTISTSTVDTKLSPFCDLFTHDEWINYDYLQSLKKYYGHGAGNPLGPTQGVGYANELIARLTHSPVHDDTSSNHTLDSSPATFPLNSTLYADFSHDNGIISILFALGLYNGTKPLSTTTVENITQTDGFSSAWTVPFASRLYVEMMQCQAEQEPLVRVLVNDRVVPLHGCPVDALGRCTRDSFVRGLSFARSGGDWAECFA
Nature of the series: biochemical.

Series [2] relates to Saccharomyces cerevisiae phytase. Nature of the series: phosphate release, ammonium molybdate, Lineweaver-Burk. As to conditions: pH 5.0, 37°C, 100 mM sodium acetate; InsP3 prepared with S. cerevisiae phytase. It is filed as biochemical.
Substrate in series [3]: Nc1ncnc2c1ncn2[C@@H]1O[C@H](COP(=O)(O)O)[C@@H](O)[C@H]1O
Put plainly: purified protein. As to conditions: pH 5.0, 37°C, 100 mM sodium acetate.

Substrate in series [4]: Nc1ncnc2c1ncn2[C@@H]1O[C@H](COP(=O)(O)OP(=O)(O)O)[C@@H](O)[C@H]1O
Nature of the series: purified protein. The note with it: pH 5.0, 37°C, 100 mM sodium acetate.

Substrate in series [5]: Nc1ncnc2c1ncn2[C@@H]1O[C@H](COP(=O)(O)OP(=O)(O)OP(=O)(O)O)[C@@H](O)[C@H]1O
Nature of the series: purified protein. The note with it: pH 5.0, 37°C, 100 mM sodium acetate.

Substrate in series [6]: O=P(O)(O)OC(CO)CO
Put plainly: purified protein. As to conditions: pH 5.0, 37°C, 100 mM sodium acetate.

Substrate in series [7]: O=P(O)(O)O[C@H]1O[C@H](CO)[C@@H](O)[C@H](O)[C@H]1O
Put plainly: purified protein. As to conditions: pH 5.0, 37°C, 100 mM sodium acetate.

Substrate in series [8]: O=P(O)(O)O[C@H]1[C@H](OP(=O)(O)O)[C@@H](OP(=O)(O)O)[C@H](OP(=O)(O)O)[C@@H](OP(=O)(O)O)[C@H]1OP(=O)(O)O
Nature of the series: purified protein. The note with it: pH 5.0, 37°C, 100 mM sodium acetate.

Substrate in series [9]: O=P(O)(O)Oc1ccc2ccccc2c1
Nature of the series: purified protein. As to conditions: pH 5.0, 37°C, 100 mM sodium acetate.

Substrate in series [10]: O=P(O)(O)Oc1cccc2ccccc12
Put plainly: purified protein. As to conditions: pH 5.0, 37°C, 100 mM sodium acetate.

Substrate in series [11]: O=P(O)(O)Oc1ccccc1
Put plainly: purified protein. The note with it: pH 5.0, 37°C, 100 mM sodium acetate.

Substrate in series [12]: O=[N+]([O-])c1ccc(OP(=O)(O)O)cc1
Put plainly: purified protein. The note with it: pH 5.0, 37°C, 100 mM sodium acetate.

What is called Ki is the dissociation constant of the complex between target and ligand, obtained from inhibition or displacement. High values mean weaker binding, low ones tighter binding. For orientation: Km means the substrate concentration at which the rate is half of its maximum. Broadly, the kcat is the maximal rate divided by the concentration of active sites. What is called kcat/Km is the second-order rate constant that governs catalysis at low substrate concentration.

`F` [Fluoride] returned an inhibitory constant (Ki) in series [1] of 158 µM.
As for `O=P(O)(O)O[C@@H]1[C@H](OP(=O)(O)O)[C@H](O)[C@@H](O)[C@H](O)[C@H]1OP(=O)(O)O` [D-Ins(1,2,6)P3], the Michaelis-Menten constant (Km) in series [2] was found to be 293 ± 12 µM.

B1: phytase from Aspergillus niger 11T53A9 (Aspergillus niger) (protein)
chain: ASRNQSSCDTVDQGYQCFSETSHLWGQYAPFFSLANESVISPEVPAGCRVTFAQVLSRHGARYPTDSKGKKYSALIEEIQQNATTFDGKYAFLKTYNYSLGADDLTPFGEQELVNSGIKFYQRYESLTRNIVPFIRSSGSSRVIASGKKFIEGFQSTKLKDPRAQPGQSSPKIDVVISEASSSNNTLDPGTCTVFEDSELADTVEANFTATFVPSIRQRLENDLSGVTLTDTEVTYLMDMCSFDTISTSTVDTKLSPFCDLFTHDEWINYDYLQSLKKYYGHGAGNPLGPTQGVGYANELIARLTHSPVHDDTSSNHTLDSSPATFPLNSTLYADFSHDNGIISILFALGLYNGTKPLSTTTVENITQTDGFSSAWTVPFASRLYVEMMQCQAEQEPLVRVLVNDRVVPLHGCPVDALGRCTRDSFVRGLSFARSGGDWAECFA
As to B1, the Km in the series “purified protein [3]” amounted to 497 ± 8.2 µM; in “purified protein [4]”, 534 ± 7.9 µM; in “purified protein [5]”, 587 ± 6.5 µM; in the series “purified protein [6]”, 521 ± 9.1 µM; in “purified protein [7]” it was 741 ± 6.4 µM; in the series “purified protein [8]”, 54 ± 1.4 µM. In addition, the Km turned out to be 276 ± 7.1 µM in “purified protein [9]”, 247 ± 6.7 µM in “purified protein [10]”, 177 ± 1.3 µM in “purified protein [11]” and 124 ± 3.9 µM in “purified protein [12]”. Besides, the catalytic constant (kcat) in the series “purified protein [3]” stood at 11 ± 1.1 s⁻¹; in the series “purified protein [4]”, 12 ± 0.9 s⁻¹; in the series “purified protein [5]”, 8 s⁻¹; in “purified protein [6]”, 9 ± 0.3 s⁻¹; in “purified protein [7]”, 6 ± 0.4 s⁻¹; in the series “purified protein [8]”, 190 ± 4.3 s⁻¹. In addition, the turnover number (kcat) in the series “purified protein [9]” was 22 s⁻¹; in “purified protein [10]” it was 23 ± 1.5 s⁻¹; in “purified protein [11]” it was 36 s⁻¹; in the series “purified protein [12]” it was 35 ± 0.9 s⁻¹. Besides, the specificity constant (kcat/Km) in “purified protein [3]” worked out at 22100 M⁻¹ s⁻¹; in “purified protein [4]”, 22500 M⁻¹ s⁻¹; in “purified protein [5]”, 13600 M⁻¹ s⁻¹; in the series “purified protein [6]”, 17300 M⁻¹ s⁻¹; in the series “purified protein [7]” it was 8100 M⁻¹ s⁻¹; in “purified protein [8]”, 3.52e+06 M⁻¹ s⁻¹. Further, the kcat/Km in the series “purified protein [9]” worked out at 79700 M⁻¹ s⁻¹; in “purified protein [10]” it was 93100 M⁻¹ s⁻¹; in the series “purified protein [11]”, 203000 M⁻¹ s⁻¹; in the series “purified protein [12]”, 282000 M⁻¹ s⁻¹.

These data come from PMC3768570 (Brazilian Journal of Microbiology, 2009).
